What was measured:
Srs2ΔC (Srs2 1-898) [1] = target: T1, Srs2ΔC (Srs2 1-898) (Saccharomyces cerevisiae? (budding …, UniProt P12954 1-898)); assay: competition; FITC-3' overhang competitor releasing 50% of Cy5-ssDNA (N1) from 150 nM Srs2ΔC; 30 mM Tris pH 7.5, 1 mM DTT, 0.1 mg/ml BSA, 100 mM KCl, 3 nM DNA, 30 °C 10 min; 7% native PAGE in 0.5x TBE; settings: protein: recombinant; tags: His9 (pull-down section says His6); label: fluorescein (FITC), end label
Srs2ΔC (Srs2 1-898) [2] = target: T1, Srs2ΔC (Srs2 1-898); assay: EMSA; much higher affinity than other substrates; 3 nM DNA; 30 mM Tris pH 7.5, 1 mM DTT, 0.1 mg/ml BSA, 100 mM KCl, 3 nM DNA, 30 °C 10 min; 7% native PAGE in 0.5x TBE; settings: protein: recombinant, tags: His9 (pull-down section says His6), label: fluorescent dye (fluorescein or Cy5), end label
Srs2ΔC (Srs2 1-898) [3] = target: T1, Srs2ΔC (Srs2 1-898); assay: competition; FITC-ssDNA competitor against Cy5-ssDNA with 150 nM Srs2ΔC; value derived from text: 3 times higher than the 5 nM of 3' overhang; 30 mM Tris pH 7.5, 1 mM DTT, 0.1 mg/ml BSA, 100 mM KCl, 3 nM DNA, 30 °C 10 min; 7% native PAGE in 0.5x TBE; settings: protein: recombinant; tags: His9 (pull-down section says His6); label: fluorescein or Cy5, end label; single strand

T1 sequence (P12954 1-898, stated change not applied): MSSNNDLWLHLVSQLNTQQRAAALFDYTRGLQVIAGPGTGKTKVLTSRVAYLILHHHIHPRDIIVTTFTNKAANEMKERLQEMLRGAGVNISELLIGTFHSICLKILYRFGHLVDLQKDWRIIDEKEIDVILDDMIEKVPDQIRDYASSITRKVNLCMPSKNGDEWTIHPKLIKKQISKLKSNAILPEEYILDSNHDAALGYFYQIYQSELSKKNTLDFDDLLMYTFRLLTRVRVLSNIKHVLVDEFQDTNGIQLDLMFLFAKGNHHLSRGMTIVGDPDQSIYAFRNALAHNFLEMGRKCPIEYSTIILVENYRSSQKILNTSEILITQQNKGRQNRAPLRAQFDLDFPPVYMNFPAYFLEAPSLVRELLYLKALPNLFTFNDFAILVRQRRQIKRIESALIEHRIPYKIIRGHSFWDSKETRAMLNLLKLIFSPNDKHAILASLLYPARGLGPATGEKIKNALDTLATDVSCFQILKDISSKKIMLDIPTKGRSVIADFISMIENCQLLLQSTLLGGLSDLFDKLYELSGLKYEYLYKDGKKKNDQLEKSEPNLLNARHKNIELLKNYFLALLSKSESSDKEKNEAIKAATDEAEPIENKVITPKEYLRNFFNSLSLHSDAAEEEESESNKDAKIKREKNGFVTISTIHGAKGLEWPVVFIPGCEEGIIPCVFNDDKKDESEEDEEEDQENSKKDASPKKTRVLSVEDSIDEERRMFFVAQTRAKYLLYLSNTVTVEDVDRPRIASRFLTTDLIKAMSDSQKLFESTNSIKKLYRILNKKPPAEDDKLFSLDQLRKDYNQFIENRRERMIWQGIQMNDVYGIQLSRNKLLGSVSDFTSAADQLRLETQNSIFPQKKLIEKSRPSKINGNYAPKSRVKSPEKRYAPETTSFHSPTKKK

B1: 3' overhang (mixed)
DNA 1: AGCTACCATGCCTGCACGAATTAAGCAATTCGTAATCATGGTCATAGCT
DNA 2: AATTCGTGCAGGCATGGTAGCT
IC50 (Srs2ΔC (Srs2 1-898) [1]): ~5 nM

B2: 5' flap (fork with leading strand) (structured_DNA)
DNA 1: B1 DNA 1
DNA 2: AGCTATGACCATGATTACGAATTGCTT
DNA 3: GATGTCAAGCAGTCCTAAGGAATTCGTGCAGGCATGGTAGCT
binding result (Srs2ΔC (Srs2 1-898) [2]; 5' flap): binds

B3: 5' overhang (mixed)
DNA 1: B1 DNA 1
DNA 2: AGCTATGACCATGATTACGAATTGCTT
binding result (Srs2ΔC (Srs2 1-898) [2]): binds

B4: ssDNA (ssDNA)
DNA: B1 DNA 1
IC50 (Srs2ΔC (Srs2 1-898) [3]): ~15 nM
